One molecule from patent US10941200B2, “TREM2 cleavage modulators and uses thereof” (Deutsches Zentrum Für Neurodegenerative Erkrankungen EV, priority 2016, dated 2021) can be followed below.

Entries after “also recorded” stand apart in the source; their conditions may differ.

Holding throughout (type): cell-based
Experiment [1] deals with T1, human TREM2 (Homo sapiens, UniProt Q9NZC2).
T1 construct: HEK293 Flp-In cells either expressing human full-length TREM2 or empty vector; expressed in transfected cells
T1 sequence (Q9NZC2 19-230): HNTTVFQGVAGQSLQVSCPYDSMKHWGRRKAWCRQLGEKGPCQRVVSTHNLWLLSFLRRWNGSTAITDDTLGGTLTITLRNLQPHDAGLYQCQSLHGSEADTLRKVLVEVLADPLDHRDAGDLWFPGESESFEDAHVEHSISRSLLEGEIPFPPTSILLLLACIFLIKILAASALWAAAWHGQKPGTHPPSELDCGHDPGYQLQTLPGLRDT
Nature of the experiment: Immunoblotting of mature TREM2 in membrane fractions of HEK cells stably overexpressing wt TREM2. The settings on record: antibody 50 μg/mL, 24 hrs. On the procedure:
(§1) HEK293 Flp-In cells stably overexpressing TREM2 or TREM2-DAP12 cDNA constructs were seeded at a density of 1.5×10^5/cm^2 and medium changed 48 h post seeding. Conditioned medium was collected after 18-20 h, immediately cooled down on ice, centrifuged at 13,000 rpm for 20 min at 4° C. and supernatants frozen at −20° C. until analysis. Supernatants were directly subjected to standard 15% SDS-PAGE. To prepare membrane fractions, cells were washed twice with ice-cold PBS, resuspended in ice-cold hypotonic buffer (0.01 M Tris, pH 7; 1 mM EDTA; 1 mM EGTA), freshly supplemented with protease inhibitor (Sigma) and incubated on ice for 30 min. After snap freezing in liquid
nitrogen and thawing, the disrupted cells were centrifuged at 13,000 rpm for 45 min at 4° C.
The resulting pellet was resuspended in STE lysis buffer (150 mM NaCl, 50 mM Tris-HCl,
pH 7.6, 2 mM EDTA, 1% Triton-X 100), incubated for 20 min on ice and clarified by centrifugation at 13,000 rpm for 30 min at 4° C. Protein concentrations were measured using the BCA method, equal amounts of protein were mixed with Laemmli sample buffer, supplemented with beta mercaptoethanol, separated by SDS-PAGE and transferred onto polyvinylidene difluoride membranes (Hybond P; Amersham Biosciences, Aylesbury, UK). Bound antibodies were visualized by corresponding HRP-conjugated secondary antibodies
(§2) using enhanced chemiluminescence technique (Pierce). Quantification of immunoblots was performed on a LAS-4000 image reader and analyzed using the Multi-Gauge V3.0 software (both Fujifilm Life Science).
(§3) 1*10^6-1.5*10^6 cells were seeded in the 6-well format. 24 hours later fresh medium was added to the cells. Antibody clones as generated by Dr. Feederle (Helmholtz Center Munich, Core Facility Monoclonal Antibody Development) were added simultaneously, i.e. for overnight treatment (about 24 hrs), at a final concentration of 50 μg/mL. On the next day, conditioned media and cells were collected and processed as described under “Preparation of conditioned media, cell lysates, and immunoblotting”.
(§4) ADAM10 inhibitor G1254023X (5 μM final concentration) and a control monoclonal antibody, which is specific for the C terminus of human TREM2, were used as positive and negative controls, respectively.
(Immunoblotting shows a protein as a band on a membrane.)

For experiment [2], the target named is T1, human TREM2. Description: sTREM2 ELISA of conditioned media from HEK293 Flp-In cells stably overexpressing wt TREM2 (ectodomain shedding). The protocol:
as §3, §4
For quantitation of levels of sTREM2 in cell culture supernatants, an ELISA for human sTREM2 was established using the Meso Scale Discovery SECTOR Imager 2400. Streptavidin-coated 96-well plates were blocked overnight at 4° C. in 0.5% bovine serum albumin (BSA) and 0.05% Tween 20 in PBS (pH 7.4) (blocking buffer). For detection of human sTREM2, plates were shaken for 1 hour at room temperature with biotinylated polyclonal goat anti-human TREM2 capture antibody (0.25 mg/ml; R&D Systems) diluted in blocking buffer. Plates were washed subsequently four times with 0.05% Tween 20 in PBS (washing buffer) and incubated for 2 hours at room temperature with samples diluted 1:4 in 0.25% BSA and 0.05% Tween 20 in PBS (pH 7.4) (assay buffer) supplemented with protease inhibitors (Sigma). Recombinant human TREM2 protein (Holzel Diagnostika) was diluted in assay buffer in a two-fold serial dilution and used for the standard curve (concentration range, 4000 to […]). Plates were washed three times for 5 min with washing buffer before incubation for 1 hour at room temperature with mouse monoclonal anti-TREM2 antibody (1 mg/ml; Santa Cruz Biotechnology; B-3) diluted in blocking buffer. After three additional washing steps, plates were incubated with a SULFO-TAG-labeled anti-mouse secondary antibody (1:1000; Meso Scale Discovery) and incubated for 1 hour in the dark. Last, plates were washed three times with washing buffer followed by two washing steps in PBS and developed by adding Meso Scale Discovery Read buffer. The light emission at 620 nm after electrochemical stimulation was measured using the Meso Scale Discovery SECTOR Imager 2400 reader. To quantify the levels of sTREM2 secreted from HEK293 Flp-In cells, conditioned media from biological replicates were analyzed in duplicates. The sTREM2 standard curves were generated using the MasterPlex ReaderFit software (MiraiBio Group, Hitachi Solutions America) through a five-parameter logistic fit. Levels of sTREM2 were subsequently normalized to levels of immature TREM2 as quantified from Western Blots.
In general terms: ELISA stands for enzyme-linked immunosorbent assay.

The target in experiment [3] is T1, human TREM2. Nature of the experiment: Anti-HA immunoblotting of soluble TREM2 (sTREM2) from conditioned media of HEK cells stably overexpressing wt TREM2. The note with it: antibody 50 μg/mL, 24 hrs; FIG. 7A top blot. On the procedure: as §1, §2
1*10^6-1.5*10^6 cells were seeded in the 6-well format. 24 hours later fresh medium was added to the cells. Antibody clones as generated by Dr. Feederle (Helmholtz Center Munich, Core Facility Monoclonal Antibody Development) were added simultaneously, i.e. for overnight treatment (about 24 hrs), at a final concentration of 50 μg/mL. On the next day, conditioned media and cells were collected and processed as described under “Preparation of conditioned media, cell lysates, and immunoblotting”. […]

B1: clone 14D8: rat monoclonal antibody against TREM2 cleavage site peptide; heavy chain variable SEQ ID NO: 24, light chain variable SEQ ID NO: 34 (antibody, V domains shown)
VH: EVKLLESGGGLVQPGGSMRLSCAASGFTFTDFYMNWIRQPAGKAPEWLGLIRNKANGYTTVYNPSVKGRFTISRDNTQNMLYLQMNTLRGEDTATYYCARIGINNGGSLDYWGQGVMVTVSS
VL: DILINQSPASLTVSTGEKVTMSCRSSQSLLYSEKNQDYLAWYQQKPGQFPKLLIYGASYRHTGVPDRFTGSGSGTDFTLTISSVQAEDLADYYCEQTYSYPYTFGAGTKLELK
modifications: Clone 14D8 variable region of the heavy chain; Clone 14D8 variable region of the light chain
With B1, in the experiment with human TREM2 [1] (FIG. 7A bottom blot), the “increase in levels of mature TREM2 in the membrane fraction (immunoblot), result in words” value is “comparable to if not higher than the increase as seen with the ADAM10 inhibitor G1254023X”. In addition, the “levels of mature TREM2 in the membrane fraction (quantified immunoblots), result in words” value with human TREM2 [1] (normalized to immature TREM2, FIG. 7C) is on record as “increases in levels of mature TREM2 comparable to or even higher than the ADAM10 inhibitor G1254023X; also recorded: increases in levels of mature TREM2 in the membrane fraction”. In addition, in the experiment with human TREM2 [2] (antibody 50 μg/mL, 24 hrs, normalized to immature TREM2, FIG. 7B), the “sTREM2 levels (ELISA), result in words” value is “decreases in sTREM2 levels comparable to the ADAM10 inhibitor G1254023X; also recorded: decreased levels of sTREM2”. Also, in the experiment with human TREM2 [2] (ranking among the antibody clones of the Examples), the “activity to inhibit TREM2 cleavage (summary statement)” value is given as “very high activity to inhibit TREM2 cleavage”. The “extent of ectodomain cleavage (sTREM2 immunoblot), result in words” value with human TREM2 [3] is “strongly reduce the extent of ectodomain cleavage”.
